Molecular target: CD40 (from R&D systems) (UniProt P25942)
Chain of UniProt P25942 (P25942 21-193 limits assumed): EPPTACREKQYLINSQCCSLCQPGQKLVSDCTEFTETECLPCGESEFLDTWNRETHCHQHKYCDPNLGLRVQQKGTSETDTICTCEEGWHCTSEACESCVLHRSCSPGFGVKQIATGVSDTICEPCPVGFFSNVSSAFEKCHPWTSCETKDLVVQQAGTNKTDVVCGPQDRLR

toxic shock syndrome toxin-1 (TSST-1), native / wild-type (from UniProt P06886 41-234) (other; other documents disagree on this pair)
Kd: 2700 nM
